Assays:
Assay in all cases: pull-down
[1] = molecular target: PDZ2 Domain-HaloTag fusion protein (PSD-95 PDZ2) on HaloLink resin (Mus musculus, UniProt Q62108 155-249)
[2] = molecular target: MBP fusion protein containing an N-terminal PDZ2 Tag (Mus musculus, UniProt Q62108 155-249)
PDZ2 domain of PSD-95 = PDZ2 domain of PSD-95 (Mus musculus, UniProt Q62108 155-249)
[3] = molecular target: HaloTag-PDZ1+PDZ2 fusion protein (PSD-95 PDZ1-2) on HaloLink resin (Mus musculus, UniProt Q62108 61-249)
[4] = molecular target: MBP fusion protein containing a C-terminal PDZ2 Tag (Mus musculus, UniProt Q62108 155-249)
[5] = molecular target: MBP-GST fusion protein containing an internal PDZ2 Domain Tag (Mus musculus, UniProt Q62108 155-249)
[6] = molecular target: PDZ3 Domain-HaloTag fusion protein (PSD-95 PDZ3) on HaloLink resin (Mus musculus, UniProt Q62108 302-402)
Sequence of PDZ3 Domain-HaloTag fusion protein (PSD-95 PDZ3) on HaloLink resin (Q62108 302-402): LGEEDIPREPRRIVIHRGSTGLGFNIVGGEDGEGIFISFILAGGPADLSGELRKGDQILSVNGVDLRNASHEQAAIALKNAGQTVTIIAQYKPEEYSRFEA

Sequence of HaloTag-PDZ1+PDZ2 fusion protein (PSD-95 PDZ1-2) on HaloLink resin (Q62108 61-249): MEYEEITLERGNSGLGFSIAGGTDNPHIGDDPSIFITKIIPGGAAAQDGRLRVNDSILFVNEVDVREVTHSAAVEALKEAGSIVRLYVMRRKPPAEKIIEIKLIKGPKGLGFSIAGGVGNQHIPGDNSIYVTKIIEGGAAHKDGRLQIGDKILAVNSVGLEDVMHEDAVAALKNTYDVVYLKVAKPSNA
Sequence of MBP-GST fusion protein containing an internal PDZ2 Domain Tag (Q62108 155-249): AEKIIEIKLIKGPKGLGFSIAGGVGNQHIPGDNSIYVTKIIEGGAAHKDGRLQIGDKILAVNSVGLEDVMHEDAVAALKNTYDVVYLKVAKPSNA
Sequence of PDZ2 domain of PSD-95 (Q62108 155-249): as above
Sequence of MBP fusion protein containing a C-terminal PDZ2 Tag (Q62108 155-249): as above
Sequence of PDZ2 Domain-HaloTag fusion protein (PSD-95 PDZ2) on HaloLink resin (Q62108 155-249): as above
Sequence of MBP fusion protein containing an N-terminal PDZ2 Tag (Q62108 155-249): as above

binding result [1] | binding result [2] | binding result (PDZ2 domain of PSD-95) | binding result [3] | binding result [4] | binding result [5] | binding result [6] | Binder
binds | binds | binds | binds | binds | binds |  | SIESDV [SIESDV peptide (free GluN2B Peptide Ligand)]
 |  |  |  |  |  | binds | YKQTSV [YKQTSV peptide]
